Assay results: patent publication US20230270825A1, “STAPLED OLEFIN CO-AGONISTS OF THE GLUCAGON AND GLP-1 RECEPTORS” (Merck Sharp & Dohme LLC, priority 2019, published 2023)
Numbered stars: 1 amine (or outer) side, 2 acyl side, 3 side chain; on linkers, the order of the positions; unused ones are H or OH. Bridge positions count the residues as written; N and C are the ends. Square brackets hold non-standard residues; d marks the D form. Side chains are listed from the residue outwards. Ends that are not written are not given here. Peptide text beside a SMILES is read from it. * marks the point of attachment. R6me = (R)-2-amino-2-methyloct-7-enoic acid, C=CCCCC[C@@](C)(N[*:1])C(=O)[*:2]; Nle(6-ylidene) = O=C([C@H](CCCC=[*:3])N[*:1])[*:2]; S7 = C[C@@](CCCCCC=[*:3])(N[*:1])C(=O)[*:2]; X1 = C[C@](CCCCC=[*:3])(N[*:1])C(=O)[*:2]; Gly(pent-4-enyl) = C=CCCC[C@H](N)C(=O)O; γGlu = O=C(O)[C@H](CCC(=O)[*:2])N[*:1]; Palmitoyl = CCCCCCCCCCCCCCCC(=O)*; S5 = C=CCCC[C@](C)(N)C(=O)O; Aib = CC(C)(N)C(=O)O

B1: peptide of SEQ ID NO: 7 (TP397) (peptide)
peptide: HXQGTFTSDXSXYLDERAXQDFVQWLLDT
modifications: as printed: HsQGTFTSDK(γEγEC16)S*R6meYLDERA*S7meQDFVQWLLDT-NH2; s = D-Serine (position 2); Lys 10 conjugated to C16 fatty acid (-CO-(CH2)14-CH3) via γ-glutamic acid-γ-glutamic acid; *R6me (position 12) and *S7me (position 19) cyclized to form a double bond containing ring; C-terminal amide
B2: peptide of SEQ ID NO: 15 (TP506) (peptide)
peptide: HXQGTFTSDXSKYLDERAAXDFVXWLLDT
modifications: as printed in Table 1: HsQGTFTSDK(γEγEC16)SKYLDERAA*S5HDFV*S5HWLLDT-NH2 (Table 2 prints HSQ...); s = D-Serine (position 2); Lys 10 conjugated to C16 fatty acid via γEγE; two *S5H = (S)-2-aminohept-6-enoic acid (positions 20 and 24) cyclized to form a double bond containing ring; C-terminal amide
B3: peptide of SEQ ID NO: 6 (TP397) (peptide)
peptide: H[dS]QGTFTSDKS[R6me]YLDERA[S7]QDFVQWLLDT-NH2
modifications: staple 12-19
B4: peptide of SEQ ID NO: 16 (TP551) (peptide)
peptide: H[Aib]QGTFTSDK([γGlu-γGlu-Palmitoyl])SKYLD[Aib]RAAQDFV[Gly(pent-4-enyl)]WLL[Gly(pent-4-enyl)]TK-NH2
modifications: staple 24-28; not fully specified (residue 30); printed as HUQGTFTSDK(γEγEC16)SKYLDURAAQDFV*S5HWLL*S5HTKγE-NH2; also: Lys 30 conjugated by a gamma-glutamic acid (KγE)
B5: peptide of SEQ ID NO: 13 (TP401) (peptide)
peptide: H[Aib]QGTFTSDK([γGlu-γGlu-Palmitoyl])SKYLD[Aib]RAAQ[R6me]FVQWLM[S7]TK-NH2
modifications: staple 21-28; not fully specified (residue 30); printed as HUQGTFTSDK(γEγEC16)SKYLDURAAQ*R6meFVQWLM*S7meTKγE-NH2; also: Lys 30 conjugated by a gamma-glutamic acid (KγE)
B6: peptide of SEQ ID NO: 8 (TP398) (peptide)
peptide: HXQGTFTSDXSKYLDEXAAQDFVXWLLDT
modifications: as printed: HsQGTFTSDK(γEγEC16)SKYLDE*R6meAAQDFV*S7meWLLDT-NH2; s = D-Serine (position 2); Lys 10 conjugated to C16 fatty acid via γEγE; *R6me (position 17) and *S7me (position 24) cyclized to form a double bond containing ring; C-terminal amide
B7: peptide of SEQ ID NO: 18 (TP 557) (peptide)
peptide: H[Aib]QGTFTSDKSKYLD[Aib]RAAQDFV[Gly(pent-4-enyl)]WLL[Gly(pent-4-enyl)]TK-NH2
modifications: staple 24-28; not fully specified (residue 30); printed as HUQGTFTSDKSKYLDURAAQDFV*S5HWLL*S5HTKγE-NH2; also: Lys 30 conjugated by a gamma-glutamic acid (KγE)
B8: peptide of SEQ ID NO: 9 (TP398) (peptide)
peptide: H[dS]QGTFTSDKSKYLDE[R6me]AAQDFV[S7]WLLDT-NH2
modifications: staple 17-24
B9: peptide of SEQ ID NO: 19 (TP 558) (peptide)
peptide: HXQGTFTSDKSKYLDERAAXDFVXWLLDT
modifications: as printed: HsQGTFTSDKSKYLDERAA*S5meDFV*S5meWLLDT-NH2; s = D-Serine (position 2); two *S5me (positions 20 and 24) cyclized to form a double bond containing ring; C-terminal amide
B10: peptide of SEQ ID NO: 14 (TP402) (peptide)
peptide: H[Aib]QGTFTSDK([γGlu-γGlu-Palmitoyl])SKYLD[Aib]RAAQDFV[S5]WLM[S5]TK-NH2
modifications: staple 24-28; not fully specified (residue 30); printed as HUQGTFTSDK(γEγEC16)SKYLDURAAQDFV*S5meWLM*S5meTKγE-NH2; also: Lys 30 conjugated by a gamma-glutamic acid (KγE)
B11: peptide of SEQ ID NO: 11 (TP 399) (peptide)
peptide: H[dS]QGTFTSDKSKYLDERAA[R6me]DFVQWL[S7]DT-NH2
modifications: staple 20-27
B12: peptide of SEQ ID NO: 17 (TP 556) (peptide)
peptide: HXQGTFTSDKSKYLDERAAXDFVXWLLDT
modifications: as printed: HsQGTFTSDKSKYLDERAA*S5HDFV*S5HWLLDT-NH2; s = D-Serine (position 2); two *S5H (positions 20 and 24) cyclized to form a double bond containing ring; C-terminal amide
B13: peptide of SEQ ID NO: 10 (TP399) (peptide)
peptide: H[dS]QGTFTSDK([γGlu-γGlu-Palmitoyl])SKYLDERAA[R6me]DFVQWL[S7]DT-NH2
modifications: staple 20-27

What was measured:
human GCGR = biological target: T1, human GCGR (Homo sapiens, UniProt P47871); experiment: cAMP activity assay, cells expressing human GCGR (HitHunter cAMP XS); assay type: cell-based; details: for EC50: cAMP production, 1 hour at room temperature, assay buffer with or without 20% human serum (not stated which); for hGCGR/hGLP1R (hTone): ratio of human GCGR EC50 to human GLP1R EC50
T1 construct: expressed in transfected cells; assay-ready frozen cells grown with Blasticidin and Hygromycin
Experimental: Activity of the peptides at the Glucagon receptor (GCGR) and GLP-1 receptor (GLP1R) was measured in a cAMP activity assay.
Peptides were dissolved in 100% DMSO and serially diluted to generate 10 point titrations. The peptide solutions were then transferred into 384-well assay plates (150 nL/well).
Assay ready frozen cells expressing human GLP1R or human GCGR were suspended in growth media consisting of DMEM medium (GIBCO), 10% FBS (GIBCO), 1x NEAA(GIBCO), 1x P/S (GIBCO), 10ug/ml Blasticidin (GIBCO) and 200 µg/mL Hygromycin (GIBCO). Cells were then diluted in assay buffer consisting of PBS (GIBCO), 7.5% BSA (Perkin Elmer), 100 µM RO 20-1724 (Sigma), with or without 20% human serum (MP Biomedical). The cell suspensions (15 µL) were then added to the assay plates containing the peptide solutions (30,000 cells/well for human GCGR; 10.000 cells/well for human GLP1R). The cells were incubated for 1 hour at room temperature in the dark. Production of cAMP was determined using HitHunter™ cAMPXS kits (DiscoverX) following manufacturer protocol. The plates were incubated for overnight at room temperature in the dark. Luminescence was measured using an EnVision Multilabel plate reader (Perkin Elmer). Native GLP-1 and Glucagon (Bachem) are used as control peptides. EC50 values were calculated using uses a 4 parameter logistic fit based on the Levenberg-Marquardt algorithm.

[1] = biological target: human Glucagon receptor (GCGR) (human, UniProt P47871); experiment: cell-based or functional assay
[2] = biological target: human GLP-1 receptor (GLP1R) (human, UniProt P43220); experiment: cell-based or functional assay

T1 sequence (P47871 26-477): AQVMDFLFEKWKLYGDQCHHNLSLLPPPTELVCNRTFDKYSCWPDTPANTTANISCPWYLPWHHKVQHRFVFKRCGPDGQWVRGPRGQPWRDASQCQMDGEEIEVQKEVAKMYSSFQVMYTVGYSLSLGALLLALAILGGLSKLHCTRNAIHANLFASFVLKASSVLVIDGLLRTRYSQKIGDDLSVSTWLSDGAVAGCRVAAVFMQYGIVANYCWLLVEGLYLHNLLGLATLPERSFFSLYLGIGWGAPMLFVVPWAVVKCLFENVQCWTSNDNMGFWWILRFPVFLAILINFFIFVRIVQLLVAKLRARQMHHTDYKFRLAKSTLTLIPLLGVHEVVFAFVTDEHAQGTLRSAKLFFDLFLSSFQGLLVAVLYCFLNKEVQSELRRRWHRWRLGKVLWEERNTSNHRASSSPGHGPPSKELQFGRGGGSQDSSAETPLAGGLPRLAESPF

| Molecule | EC50 (human GCGR) | hGCGR/hGLP1R (hTone) (human GCGR) | GCGR EC50 human (cAMP activity assay) [1] | GLP1R EC50 human (cAMP activity assay) [2] |
| --- | --- | --- | --- | --- |
| CCCCCCCCCCCCCCCC(=O)N[C@@H](CCC(=O)N[C@@H](CCC(=O)NCCCC[C@H](NC(=O)[C@H](CC(=O)O)NC(=O)[C@H](CO)NC(=O)[C@@H](NC(=O)[C@H](Cc1ccccc1)NC(=O)[C@@H](NC(=O)CNC(=O)[C@H](CCC(N)=O)NC(=O)[C@@H](CO)NC(=O)[C@@H](N)Cc1c[nH]cn1)[C@@H](C)O)[C@@H](C)O)C(=O)N[C@@H](CO)C(=O)N[C@@H](CCCCN)C(=O)N[C@@H](Cc1ccc(O)cc1)C(=O)N[C@@H](CC(C)C)C(=O)N[C@@H](CC(=O)O)C(=O)N[C@@H](CCC(=O)O)C(=O)N[C@]1(C)CCCCC=CCCCCC[C@@](C)(C(=O)N[C@@H](Cc2c[nH]c3ccccc23)C(=O)N[C@@H](CC(C)C)C(=O)N[C@@H](CC(C)C)C(=O)N[C@@H](CC(=O)O)C(=O)N[C@H](C(N)=O)[C@@H](C)O)NC(=O)[C@H](C(C)C)NC(=O)[C@H](Cc2ccccc2)NC(=O)[C@H](CC(=O)O)NC(=O)[C@H](CCC(N)=O)NC(=O)[C@H](C)NC(=O)[C@H](C)NC1=O)C(=O)O)C(=O)O [compound 8] (H-H[dS]QGTFTSDK([γGlu-γGlu-Palmitoyl])SKYLDE[X1]AAQDFV[S7]WLLDT-NH2; staple 17-24) | 5 nM |  |  |  |
| CC(C)C[C@H](NC(=O)[C@H](Cc1ccc(O)cc1)NC(=O)[C@H](CCCCN)NC(=O)[C@H](CO)NC(=O)[C@H](CCCCN)NC(=O)[C@H](CC(=O)O)NC(=O)[C@H](CO)NC(=O)[C@@H](NC(=O)[C@H](Cc1ccccc1)NC(=O)[C@@H](NC(=O)CNC(=O)[C@H](CCC(N)=O)NC(=O)[C@@H](CO)NC(=O)[C@@H](N)Cc1c[nH]cn1)[C@@H](C)O)[C@@H](C)O)C(=O)N[C@@H](CC(=O)O)C(=O)N[C@@H](CCC(=O)O)C(=O)N[C@]1(C)CCCCC=CCCCCC[C@@](C)(C(=O)N[C@@H](Cc2c[nH]c3ccccc23)C(=O)N[C@@H](CC(C)C)C(=O)N[C@@H](CC(C)C)C(=O)N[C@@H](CC(=O)O)C(=O)N[C@H](C(N)=O)[C@@H](C)O)NC(=O)[C@H](C(C)C)NC(=O)[C@H](Cc2ccccc2)NC(=O)[C@H](CC(=O)O)NC(=O)[C@H](CCC(N)=O)NC(=O)[C@H](C)NC(=O)[C@H](C)NC1=O [compound 9] (H-H[dS]QGTFTSDKSKYLDE[X1]AAQDFV[S7]WLLDT-NH2; staple 17-24) | 5 nM |  |  |  |
| CCCCCCCCCCCCCCCC(=O)N[C@@H](CCC(=O)N[C@@H](CCC(=O)NCCCC[C@H](NC(=O)[C@H](CC(=O)O)NC(=O)[C@H](CO)NC(=O)[C@@H](NC(=O)[C@H](Cc1ccccc1)NC(=O)[C@@H](NC(=O)CNC(=O)[C@H](CCC(N)=O)NC(=O)C(C)(C)NC(=O)[C@@H](N)Cc1c[nH]cn1)[C@@H](C)O)[C@@H](C)O)C(=O)N[C@@H](CO)C(=O)N[C@@H](CCCCN)C(=O)N[C@@H](Cc1ccc(O)cc1)C(=O)N[C@@H](CC(C)C)C(=O)N[C@@H](CC(=O)O)C(=O)NC(C)(C)C(=O)N[C@@H](CCCNC(=N)N)C(=O)N[C@@H](C)C(=O)N[C@@H](C)C(=O)N[C@@H](CCC(N)=O)C(=O)N[C@@H](CC(=O)O)C(=O)N[C@@H](Cc1ccccc1)C(=O)N[C@H](C(=O)N[C@H]1CCCC=CCCC[C@@H](C(=O)N[C@H](C(=O)N[C@@H](CCCCN)C(=O)N[C@@H](CCC(N)=O)C(=O)O)[C@@H](C)O)NC(=O)[C@H](CC(C)C)NC(=O)[C@H](CC(C)C)NC(=O)[C@H](Cc2c[nH]c3ccccc23)NC1=O)C(C)C)C(=O)O)C(=O)O [compound 16] (H-H[Aib]QGTFTSDK([γGlu-γGlu-Palmitoyl])SKYLD[Aib]RAAQDFV[Nle(6-ylidene)]WLL[Nle(6-ylidene)]TKQ-OH; staple 24-28) |  | 2.67 |  |  |
| CCCCCCCCCCCCCCCC(=O)N[C@@H](CCC(=O)N[C@@H](CCC(=O)NCCCC[C@H](NC(=O)[C@H](CC(=O)O)NC(=O)[C@H](CO)NC(=O)[C@@H](NC(=O)[C@H](Cc1ccccc1)NC(=O)[C@@H](NC(=O)CNC(=O)[C@H](CCC(N)=O)NC(=O)C(C)(C)NC(=O)[C@@H](N)Cc1c[nH]cn1)[C@@H](C)O)[C@@H](C)O)C(=O)N[C@@H](CO)C(=O)N[C@@H](CCCCN)C(=O)N[C@@H](Cc1ccc(O)cc1)C(=O)N[C@@H](CC(C)C)C(=O)N[C@@H](CC(=O)O)C(=O)NC(C)(C)C(=O)N[C@@H](CCCNC(=N)N)C(=O)N[C@@H](C)C(=O)N[C@@H](C)C(=O)N[C@@H](CCC(N)=O)C(=O)N[C@]1(C)CCCCC=CCCCCC[C@@](C)(C(=O)N[C@H](C(=O)N[C@@H](CCCCN)C(=O)N[C@@H](CCC(N)=O)C(=O)O)[C@@H](C)O)NC(=O)[C@H](CCSC)NC(=O)[C@H](CC(C)C)NC(=O)[C@H](Cc2c[nH]c3ccccc23)NC(=O)[C@H](CCC(N)=O)NC(=O)[C@H](C(C)C)NC(=O)[C@H](Cc2ccccc2)NC1=O)C(=O)O)C(=O)O [compound 13] (H-H[Aib]QGTFTSDK([γGlu-γGlu-Palmitoyl])SKYLD[Aib]RAAQ[X1]FVQWLM[S7]TKQ-OH; staple 21-28) | 5 nM | 19.11 |  |  |
| B1 |  |  | 5 nM | 0.77 nM |
| B2 |  |  | 0.67 nM | 1.5 nM |
| B3 |  |  | 20 nM | 5.3 nM |
| B4 |  |  | 0.48 nM | 0.18 nM |
| B5 |  |  | 5 nM | 0.26 nM |
| B6 |  |  | 5 nM | 2.28 nM |
| B7 |  |  | 4.25 nM | 0.13 nM |
| B8 |  |  | 5 nM | 5 nM |
| B9 |  |  | 2.15 nM | 2.79 nM |
| B10 |  |  | 4.56 nM | 0.13 nM |
| B11 |  |  | 5 nM | 2.74 nM |
| B12 |  |  | 3.38 nM | 2.38 nM |
| B13 |  |  | 8.64 nM | 0.45 nM |
